In the supplement of paper PMC7125110:
± gives the standard error. Variants at the floor of the assay were thinned out.

B1: glmS ribozyme (parent)
chain: AUAAAAGCGCCAGAACUACAGAAAUGUAGUUGACGAGGAGGAGGUUUAUCGAAUUUUCGGCGGAUGCCUCCAAA

Columns and labels:
Details in all cases: with glucosamine-6-phosphate
glucosamine-6-phosphate [1] = variants of: B1; test: self-cleavage kobs at 40 uM GlcN6P; higher = faster cleavage; RNA array
Method in brief: (§1)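 Using a hybridised Cy3 probe at 37 °C, barcoded ribozyme variants transcribed in situ by E. coli RNA polymerase on sequenced MiSeq chips were monitored across tiles imaged over ~14 h. The flow contained glucosamine-6-phosphate from 40 μM to 10 mM in HEPES/KCl/Mg(OAc)2 buffer. Signals were normalised to baseline and to non-cleaving reference variants before per-tile medians were fit to one- or two-exponential decays to yield kobs. Weighted Michaelis–Menten fits across concentrations gave kcat and KM.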

glucosamine-6-phosphate [2] = variants of: B1; test: self-cleavage kobs at 160 uM GlcN6P; higher = faster cleavage; RNA array
Method in brief: as §1

glucosamine-6-phosphate [3] = variants of: B1; test: self-cleavage kobs at 640 uM GlcN6P; higher = faster cleavage; RNA array
Method in brief: as §1

glucosamine-6-phosphate [4] = variants of: B1; test: self-cleavage kobs at 2500 uM GlcN6P; higher = faster cleavage; RNA array
Method in brief: as §1

glucosamine-6-phosphate [5] = variants of: B1; test: self-cleavage kobs at 10000 uM GlcN6P; higher = faster cleavage; RNA array
Method in brief: as §1

Row | Variant | self-cleavage kobs at 40 uM GlcN6P (glucosamine-6-phosphate [1]) | self-cleavage kobs at 160 uM GlcN6P (glucosamine-6-phosphate [2]) | self-cleavage kobs at 640 uM GlcN6P (glucosamine-6-phosphate [3]) | self-cleavage kobs at 2500 uM GlcN6P (glucosamine-6-phosphate [4]) | self-cleavage kobs at 10000 uM GlcN6P (glucosamine-6-phosphate [5])
1 | AUAAAAGCGCCAGAACUACAGAAAUGUAGUUGACGAGGAGGAGAUUUAUCGAAUUUUCGGCGGAUGCCUGCAAA [G44A C70G] | < 1e-05 s⁻¹ | < 1e-05 s⁻¹ | < 1e-05 s⁻¹ | < 1e-05 s⁻¹ | < 1e-05 s⁻¹
2 | AUAAAAGCGCCAGAACUACAGAAAUGUAGUUGACGAGGAGGAGGUUUAUCGAAUUUUCGGCGUAUGGCUCCAAA [G63U C67G] | < 1e-05 s⁻¹ | < 1e-05 s⁻¹ | – | – | < 1e-05 s⁻¹
3 | AUAAAAGCGUCAGGACUACAGAAAUGUAGUUGACGAGGAGGAGGUUUAUCGAAUCUUCGGCGGGUUCCUCCAAA [C10U A14G U55C A64G G66U] | < 1e-05 s⁻¹ | – | – | – | –
4 | AUAAAGGCCCCAGAACUACAGAAAUGUAGUUGACGAGGAGGAGGUUUAUCGAAUUUUCUGCGGAUGCCUCCAAA [A6G G9C G59U] | < 1e-05 s⁻¹ | – | – | < 1e-05 s⁻¹ | –
5 | AUAAAAGCGCCAGAAGUACAGAAAUGUAUUUAACGAGGAGGAGGUUUAUCGAAUUUUCGGCGGAUGCCUCCAAA [C16G G29U G32A] | 7.82e-05 ± 1.9e-05 s⁻¹ | – | – | – | 0.0042 ± 0.0009 s⁻¹
6 | AUAAAAGAGCCAGAACUACAGAAAUGUAGAUGACGAGGAGGAGGUUUAUCGAAUUUUCGGCGGAUGCCUCCAAA [C8A U30A] | < 1e-05 s⁻¹ | < 1e-05 s⁻¹ | – | < 1e-05 s⁻¹ | < 1e-05 s⁻¹
7 | AUAAAAGCGCCAGAACUACAUAAAUGUAGUUAACGAGGAGGAGGUUUAUGGAAUUUGCGGCGGAUGCCUGCAAA [G21U G32A C50G U57G C70G] | 0.000174 ± 3.9e-05 s⁻¹ | – | – | – | 0.000301 ± 6.1e-05 s⁻¹
8 | AUAAAAGCGCCAGAACUACAGAAAUGUAGUUGACAAGGAGGAGGUUUAUCCAAUUUUCGGCGGAUGCCUCCAAA [G35A G51C] | < 1e-05 s⁻¹ | – | < 1e-05 s⁻¹ | < 1e-05 s⁻¹ | –
9 | AUAAAAGCGCCAGAACUACAGAAAUGUAGUUGACGAGGAGCAGGUUUAUAGAAUUUUCGGCGUAUGACUCCAAA [G41C C50A G63U C67A] | < 1e-05 s⁻¹ | – | – | – | < 1e-05 s⁻¹
10 | AUAAAAGCGCCUGAAAUACAGAAAUGUAAUUGACGAGGAGGAGGUUUAUCGAUUUUUCGGCGGAUGCCUCCAAA [A12U C16A G29A A53U] | 9.7e-05 ± 2e-05 s⁻¹ | – | – | – | –
11 | AUAAAAGCGCCAGAACUACAGAAAUGUAGUUGACGUGGAGGAGGUGUAUCGAUUUUUCGGCGGAUGCCUCCAAA [A36U U46G A53U] | < 1e-05 s⁻¹ | – | < 1e-05 s⁻¹ | < 1e-05 s⁻¹ | < 1e-05 s⁻¹
12 | AUAAAAGCGCCAGAACUACAGAAAUGUAGUUGACCAGGAGGAGGUGUAUCGAAUUUUCGGCGGAUGCCUGCAAA [G35C U46G C70G] | < 1e-05 s⁻¹ | – | < 1e-05 s⁻¹ | < 1e-05 s⁻¹ | < 1e-05 s⁻¹
13 | AUAAAGGCGCCAGAACUACAGAAAUGUAGUUGACGAGGAGGAGGUUUACCGAAUUUUCGGCGGAUGCCUCCAAA [A6G U49C] | < 1e-05 s⁻¹ | < 1e-05 s⁻¹ | < 1e-05 s⁻¹ | < 1e-05 s⁻¹ | –
